Assay: label from the status in PepcDB records

Sequence	protein production
MRVVRGDVARRALSIGWPLVVADSALSIAWIVDTYFVGGLGSESIAAVGAAGYLIWLYMVFSTLVYMGVLVILGQAIGSGNRGLVERAAGEGLTLSILLSIIVCAAAFAASKQLLVVLAPEVDQLAWEYLSVSLLTVALHYVTILYDAVFRALGKTMPILYSSGVFTLANTALDPILIYGRLGAPALGVEGAAWASVAASLLGLLVLVYLSRYLDVGLRPLRPTSVSRSILALGFPSMVERVVFVVGNVVYLGSVSRCGADALAAHTIGVRIESLAFLPLFSIATASGVMVGWEVGAGRIAESKSTGWELIKLSSLIGLVVGAALALGGWLVTPIFTGDPRVAWLAALYLVIAGLTEPLLGVVMVAGQIIRNAGDTRTPTLVNLGSLYILRVVPAYLLPGLMPTGLCVLGAWLAMGIDIVGRAAAIVFIYLRYYTRLARRVA	failed
MFYRLLFASLWYILPAYVANASACIFGGGTPVDLGKNFIDGRRLIGNGVTYRGCIFGILCGTLVGLIQGILVDFNIFNSLDFYGTVLDHVILAFFLSVGAIVGDAVGSFIKRRLNIERGKPAPLLDQLDFVIGALAFGYIVAPIPYEMIIIICLFTVFVHLLGNIIAYKLGIKDVWW	failed
MLKDQANQLEFPRDFLGISLADQPNKYYFIIRTQRIVLEADSSIQLIMEKLQSYKSKVALYFDGFQYQLGDFRLRVGKVVPTHSENVRGIVMEVEYLPISSMEKAQKVMEEFLEIWNEALAKRSLPGKFVNIDLNFGEFGLGDIYTPQHTAVRYALVMAHMIATVQAVRG	failed
MNKFENFYKVPISYKNRKNEIYKYDNLEYNKMKYGMPEYYRCPYYMHENRNLYNTESCYTPNINVGRNSFYGKTLDPNDKICEENDSVYNILEEDHKEESFKKIECMNKEDDRKKIYNKVEKNDDENIDNKKHNYCEKYEEVYPKDRSSIKIIYNDVDQQIDHNLYDDENEIVCDNEIKKRKKRDRKVFMGKYFFSDIINTIIYPCTNKSLQKYQYGSVENMDYSLYNDIQKGQKIQKVDKIKNKKAPQIIVKF	failed
MKVFTEKIPNIPWEERPEGYTGPVWRYSKNPIIGRNPVPKGARVFNSAVVPYNGEFVGVFRIDHKNTRPFLHFGRSKDGINWEIEPEEIQWVDVNGEPFQPSYAYDPRVVKIEDTYYITFCTDDHGPTIGVGMTKDFKTFVRLPNAYVPFNRNGVLFPRKINGKYVMLNRPSDNGHTPFGDIFLSESPDMIHWGNHRFVLGRSSYNWWENLKIGAGPYPIETSEGWLLIYHGVTLTCNGYVYSFGAALLDLDDPSKVLYRSRYYLLTPEEEYETVGFVPNVVFPCAALCDADTGRVAIYYGAADTHVALAFGYIDEIVDFVKRNSM	not failed
MSKEIFDTFKFKCGAELKNRVLMAPMTIQAGYFDGSVTSEMIDYYQFRAGDASAIIVESCFVENHGRGFPGAIGIDNDDKIPGLKRLAEAIQAKGSKAILQLYHAGRMANPKFNEGEQPISASPIAALRPDAVPPREMTHAQINQMIDDFGEATRRAIEAGFDGVEIHGANTYLLQQFFSPHSNRRQDSWGGSREKRTRFPIEVLTKVQHVVAEKEASHFIIGYRFSPEEIEEPGIRFEDTMFLLNTLAEYEPDYFHISANSYQRTSIVNQEDTEPLINKYIKMQSAQLAKIPLIGVGSIAQRQDAEHALELGYDLLSVGKAYLVEPQWTDKISQNEEVEQFVDIHDQKVLHIPSPLWKVMDFMILDKEEEHRKYEKLKALQNKKVKFNKGTYHVYAKGHNGNLPMKVQLSEDKIVSIEVDDSGESEGIANPVFERLPQDIINGQTLNVDVISGATVTSEGIVQGIADAIEQAGEDPDILRARPKPVVQWSDEVVEETTDVVVIGTGGAGLSAAATVLDEGKEVIMLEKFAAIGGNTIRTGGQVNAAEPKWQNAFPALAGEKETLIQLLNHDENDIDEAYIEDFNTLKRQIKDYLENSSNEDEYLFDSVELHRIQTYLGGKRKDRNNVEISGDYDLVKTLTDNVLESVYWLKDKGVHFDRSFVDMPVGALWRRGHKPMKAQGLEYIENLGDYVKHNHGRIFTETTAEKLIKEGNQVVGIEARKANGAKVKIHTRHGVVLATGGFGANTKMLQQYNTYWDNIPDDIKTTNSPAITGDGIRLGVQAGADIVGMGFSQMMPISDPKTGALFTGLIVTPSNFVFVNKEGQRFVNEFESRDVLSKAALEQKDGIFYIIADANIKALAMNTTEDKINQELEDGTLVKADTLEALAQKLNIDTTTFVNTIERYNTFVEQGQDEDFNKNAFDLKIEKAPFYATPRKPAIHHTMGGLKINTHAQVIDVEGHIIEGLYAAGEVAGGIHAGNRLGGNALADIFTFGRIAGQSAVTK	failed
LEYQKSQPPQPGDKFVSVVSQFITVASFSFSDVEDLLAEAKDLFTKAVKHFGEEAGKIQPDEFFGI	failed
TVVRYNPDNHADESFAARPALLWVHGMTDYFFHTEFAEFFHNAGFAVYGIDLRKCGRSYRPGQQWHYTSDLAHYFPDLTAAAEVISSTHPELVPVAHSTGGLIVPLWMSQMRTSNPAAIEKIPALVLNSPWLDMMYPPLFIKLITPMVRVLGKRSPTTIIPGGGLGAYGKSIHKNFYGEWDFDTTIKPVEGHKKSIGWLRAVMAGQAEIHHDHVNVGVDVLTLCSNKSWLKSEYTEDTNTSDAVLDVKHIQKWAPHLSSPSSRVDVEIIDNARHDIFLSRKPARDHASEVLNNWLQSK	failed
MASSDRGTSTLQGWHALQTLWRGDQRSVIQGLPHSQLAPAWQLLLLGDGSPTRHLQLLTGEPTAVDVIEMAPIADQDDGAPPPIRAIAGPRLRRQVWLRTASGQRLAYATSWWTQQRVDAYLRDRAQPIWANLADLRTELYRDIQGVEYGDSAALSEAFGQTGPFWGRYYLFWHQGQPLTLIYEVFSPAIATYLGPSTPQPVV	failed
MRYKRRFVTVYRDFPEGCGVPSKPISNADESFMQSKFNKDGIVLQAHEDFSKITKESSNHSETENSRTEDLLDEGSVLDSNGSVTDCQEDREREMSSVKKRCLSSHNLTSEVETERIGIVLGLAAKAKCPWRQPKIRGSRQVNDLN	failed
SGGRRSSWIKNWTLWKHFKDYFPIHLIKTQDLDPSHNYIFGFHPHGIMAVGAFGNFSVNYSDFKDLFPGFTSYLHVLPLWFWCPVFREYVMSVGLVSVSKKSVSYMVSKEGGGNISVIVLGGAKESLDAHPGKFTLFIRQRKGFVKIALTHGASLVPVVSFGENELFKQTDNPEGSWIRTVQNKLQKIMGFALPLFHARGVFQYNFGLMTYRKAIHTVVGRPIPVRQTLNPTQEQIEELHQTYMEELRKLFEEHKGKYGIPEHETLVLK	not failed
MEVERLSLKEFCDMVAERKPTPGGGAVGSVVGAMACALAEMVANFTRKKKGYEDVEPEMERIVEAMEEARLKLFDLAKKDMEAFEKVMKAYKSSEGELQNALKEAASVPMDVIRVMKDLAHELEKLAEFGNKNLASDTLNAADLCHAVFQVEKVNVLINLKEISDETFRKNMLEELEEQEAQIEGCYQRVKKMLEGIVWSSK	not failed
QNVLDLHGLHVDEALEHLMRVLEKKTEEFKQNGGKPYLSVITGRGNHSQGGVARIKPAVIKYLISHSFRFSEIKPGCLKVMLK	not failed
MQFIVSKKEFIPPVIAPDIIETLGDDYEIWTYEDYERLPPLLVGVYSYSAIPKCLAPLSTQGLVKSGVFRLQREFVPGLYGNGVYVVVIDTGVNYAQEAFMTPEGKTKIAVLWDQNTDTVYSEDEINAAILSENPYESIPGDEDGHGTFVASVICGNDRPQDDFAGVAPQAKLIVVKLKRAPQKLYDFYFIPDRKMVYSEVDVMRAVHFADEFAGQKGAPAVFCMALGCNNGSHTGAEDLSEYLDYITAKRGRAVVAAAGNEANSRHHYKGRITDTVDDIEINVEQDMDGFYLECWALSPELFTLSVISPSGQSNPAGVPMRIDSGEYSFLLEGTQVTIDYRQTGRQTRDLLIFIRFEKVVKGVWTIRVFPLSTIGGVFNMWLPMTGLLDADVSFIVSEPDTTLTMPSDAKLVITAGGYNSLNDAILLESGRGFDADGGIKPDLVAPAVDITGANLRGMYIALSGTSAAAAITAAVAALIMEWMIVRGNVLLANGVDIKNVMVRNCRRKEKTDYPNKIFGYGFMNGFANF	failed
MDCCTENACSKPDDDILDIPLDDPGANAAAAKIQASFRGHMARKKIKSGERGRKGPGPGGPGGAGVARGGAGGGPSGD	failed
MQVSQANLNLNFDANSLQRGKRYFSQGRVQNLVRETEGMSIQVLRAEVSGSQRQLYITEVRFDRYLPGKINTFCSCPVGFRCKHAAAVILQANHEAGLSAEKYESEADTRYKYPTAETWLEQAASVFSSIDNASNPECLAYLLHIEPHRSQQTLSVNKVRRRKSGEYSRGSKTTVWSRTNLEYDRPKYLRESDIAPLTWLNALPTAFRVSPVLEGTTGAYFIESALKTRRFFLESTQNPPLQLGETLESGFEWMQLPDKQHWQLVSKALPSHIRLLNTSPAYYLDEKELLIGRVENSLDARTTALLQQCPPLAESQLQQALPDLAPILEKAGAVLPESFQVPSMVQAAPQPILQLYSLQHPAPGTLPLLMARLMFSYEGHRVAFSEQEPRVLVDGNNGPLLVIRDEDAEIEWLHRDLPDFKMAGTMTDHLEADMVNALPYGSFLDFTLPTRNQWLDFIAFDLPRLDAGGWQIEMDESFDIPVIEIDQLHGSLKPDEESPGWFDVEVGIDYNGTQIDLIPLLQQALVYLDLNNDSDDALPETLWLHNGDALIRVVSDRIRPLVRTLLSLLGKERGGKLRLPKLDAAQVMGDLAADWQCSAELRNLSEKLTSFQALNHVPVPSEVRAELRHYQQDGLNWLMFLREFGLGGVLADDMGLGKTLQTLACIQAEKTAGRLTAPALVVCPTTLIANWEAEAEKFTPGLKRLVIHGQRRKPFFDMVAEADLVITSYPLLHRDLEQHQNQSYSLAFFDEAQHLKNPATVTSKAARRLPAENRIALTGTPMENHLGELWALFDLILPGYLADQKIFREHYRKPIEEQGNQSRYAELSRRVRPFMLRRTKDQVTPELPEKTEIVRHVELNRQQKDLYETIRATMDKRIRKLLAEKGAARSQIEILDALLKLRQICCHPALLNPEETAGSAKLDSLMEMLEQLLDEGRKVIIFSQFTSMLALIETTLKAAGIGYEKLTGQTRDRATPVKRFQNGESPVFLISLKAGGTGLNLTAADCVIHYDPWWNPAAEQQATDRAWRIGQDKPVFVYRLITEGTVEERIQALQARKSQLADGLYGKADTFSSAITADDISVLFEK	failed
MSALVSMNGNNGSTATSARIAAKKPISILVLGVDQGLEGRNDKGNSDTIILVTVNPTTKKATMTSIPRDTLTEILGETSNTSYYMFKVNSAYQFGGSSGSIKTVSAMLNVPINYYVEVNMKALESLVNALGGVDVNVPFSFSYDWCDFKKGKQHLDGRYAIAYARMRYDDPRGDYGRQLRQRQIIQAVVKKGLSVNGLANYQKLLKVFAKYVKTNLTFGDMTSLAINYRSAASNISSGYIQGHDATISGTSLQIASTEELQKWSNKLRKSLGLSPQTLTNQETRQNSLNETYNGVDFSSNETITNYTIYEANSITPRSSDSWLEHHHHHH	not failed
MSTDKSKTRELILNGNLYKVLFLISFPIVITNIIQAFYDLTDMFYVGKLGAMPLSALSLAGPVNFFIIAIAMGMATGSISLMSKCIGEGNFSRFSRYAGQLIVLNFVLSLFVTICAFFFIDHLLDLLGVKGELKELSRVYFYVTIFAIPIMFLSISITYILNAQGETILSMTIVLFANIVNFILDPILIFSFNMGITGAAWATLFSKLLTVVFYLFLTYRLNYGLKIHLKDLVIDIRSIKEIVNLGLPSTFGQIMVSLSFFIFNYIVIEISPKFLAAYGLTNTIISFLFLPAMGIGTGIISIVGQNLGAKKVNRVEEVLKKGFFISLAILLIINSIVIFNKQFILRLFTNDLEVLNYANNYLLLTTIGTFGYGLQQVFFGGLIGSGRTKIAMIVIFIRLWLIRLPVVFIFQYFGIMENSLGYAFIISNYLAIIILIAFTCTRYWVKPILIKKYK	failed

Reference: a protein production outcome set (Wang et al. 2014)
